B1: antibody 12B5 (IgG) (antibody, from another filing)
scFv: QVQLVQSGGGLVRPGGSLSLSCAVSGITLRTYGMHWVRQAPGKGLEWVAGISFDGRSEYYADSVQGRFTISRDSSKNTLYLQMNSLRAEDTAVYYCARGAHYGFDIWGQGTMVTVSSGGGGTGGGGSGGGGSDIQMTQSPSTLSASIGDRVTITCRASEGIYHWLAWYQQKPGKAPKLLIYKASSLASGAPSRFSGSGSGTDFTLTISSLQPDDFATYYCQQYSNYPLTFGGGTKLEIK

Key:
[1] = biological target: human TPO receptor (MPL) expressed on Ba/F3 cells (human) (UniProt P40238); assay: cell-based or functional assay
[2] = biological target: human TPO receptor (MPL) expressed on Ba/F3 cells (human) (UniProt P40238); assay: cell-based or functional assay; remark: listed apart in the source

Row | Molecule | ED50, proliferation of BaF/mpl cells (WST-8) [1] [nM] | ED50, TPO-like agonist activity, proliferation of BaF/mpl cells (WST-8) [2] [nM]
1 | human TPO (R&D Systems) (from UniProt P40225 22-353) (ligand) | 0.027 | 
2 | B1 |  | 29

— patent EP1327681A1
